Assay: soluble on expression in E. coli; label from the status in PepcDB or PDB records

| Sequence | soluble on expression in E. coli |
| --- | --- |
| MKYMIGVDGGGTKTEAIAFDKDGNELVRATSGFGNILIDFEEALVHIMEAINQCQKSLINGHCVCVCLGLAGISGANTNELTLRLKKKYGTKIEIFNDAMIAHAAALKGKDGILTIGGTGAICIGKKGEVYQYSGGWGHILGDEGSGYWIALQALKKMAIQFDQGISLCPLSLNIQRQFQLLTPSHIKSLVYTSSKDKIAAIAPLVIQEARDGNDDAHEIMMQAGKELARITVNVYNKLNFKHSTPIAASGSILRLVPEIFAVFKKCCEESMKEITFVSQAEMAVKGTYYLMRDIYFLEHHHHHH | soluble |
| MKYQVSLLAVKDIEVSKKFYKELFEQEIELDLGKNVTFKGGFAIQEDFAWLTGINPDTIIQKSNNMELYFEVDDFDEFIEKLNYYKDVEFVHKPLKHEWQQRVVRIYDPDKHIIEIGESMEVIARRYLSEGYSVEETSKIIQHPIEFVKQCENSKELEHHHHHH | soluble |
| MKYVDGFVVAVPADKKDAYREMAAKAAPLFKEFGALRIVECWASDVPDGKVTDFRMAVKAEENEEVVFSWIEYPSKEVRDAANQKMMSDPRMKEFGESMPFDGKRMIYGGFESIIDE | soluble |
| MKYVEVIMSIKDEGEFFMKVLQKNEFLQKSNETLASILDMLEKLPVVKFDEIEADKAVLVIIDMTNGFAKEGALKSDAVKELIPRICELSEICDRRKIRKIAFADCHTDESPEFDAYPKHCMKGTAESEIVDEIKNIGGYTLIEKNSTNGFLEEAFRKWLLENPDINTFILTGDCTDICVQQFAITLKAYFNMNNKRARVIVPLNAVDTYDLGVHDRNLMNVMAAYNMIINGVEVVRDIVE | not soluble |
| MLALGKLLELTLAGREPAEKTQLTVEGVRMRWLAEGALEVRPPQARDNGTDLLLSAGIHGNETAPIELLDELIRSIARGDLKPRARILFLFGNPAAMRLGARYVEQDVNRLFNGRHEQSGGAEALRACELERLAASFFSLPDRYRLHYDLHTAIRGSKIEQFALYPWKEGRQHSRFELARLRAAGISAVLLQNKPSIVFSAYTYEQLGAEAFTLELGKARPFGQNRHVNLAPLRLRLEQIIEGSEPQPDERLEGLQLFSVAREVIKRSDAFTFNLADDVENFSELEKGYVLAEDVSDSRWVVKEEGARIIFPNPKVKNGLRAGIVIVPADADGLGLEHHHHHH | not soluble |
| MLAYQGTQIKEKRDEDAGFDLCVPYDIMIPVSDTKIIPTDVKIQVPPNSFGWVTGKSSMAKQGLLINGGIIDEGYTGEIQVICTNIGKSNIKLIEGQKFAQLIILQHHSNSRQPWDENKISQRGDKGFGSTGVF | soluble |
| MLDFKPIELKDRELFHEYLKDYDFLTYEYSFLTLYIWRKMYNTEFAIVDDTIVIKKRTANNGTYFMQPIGADKSKIADITLKLNTLRKNNPDFKYLYGDVETPFLEQLHENFGNLVTSHEDKNNFDYIFNSKDLIKLSGKKYHRKKNQYNQFIKKYDYRIEEIQSPEVIKNCIDLSLKWYDYKSLQSEQLKNEQKAIFDIFSNIKIFNNIKGIAVYVNNEIAGFAIGEKLNSKMATVHFEKGNYNFSGIYPFLNKSLVEIFFRDVEFINLQEDLGLEGLRRAKSAYQPIKLEKKYLVNI | not soluble |
| MLDHVSITVSDIAVAEPFYDAIMAALGVVKVGARGDWLGYGERARPEHPDRVYLSIRKGDRPEPAYGRHWCFKATSRAVVDAFWQAGLAHGGVDQGAPGLRDYHPGYYAAFIADPDGNRLEAVCHTLG | not soluble |
| MLDNVLRIATRQSPLALWQAHYVKDKLMASHPGLVVELVPMVTRGDVILDTPLAKVGGKGLFVKELEVALLENRADIAVHSMKDVPVEFPQGLGLVTICEREDPRDAFVSNNYDSLDALPAGSIVGTSSLRRQCQLAERRPDLIIRSLRGNVGTRLSKLDNGEYDAIILAVAGLKRLGLESRIRAALPPEISLPAVGQGAVGIECRLDDSRTRELLAALNHHETALRVTAERAMNTRLEGGCQVPIGSYAELIDGEIWLRALVGAPDGSQIIRGERRGAPQDAEQMGISLAEELLNNGAREILAEVYNGDAPA | soluble |
| MLERILSRENLIQALERVEKNKGSYGVDEMDVKSLRLHLHENWTSIRNEIIEGSYFPKPVRRVEIPKPNGGVRKLGIPTVMDRFLQQAIAQILTQLYDPTFSERSFGFRPHRRGHNAVRQAKQWMKEGYRWVVDIDLEKFFDKVNHDRLMRKLSSRIQDPRVLQLIRRYLQTGVMERGLVSPNTEGTPQGGPLSPLLSNIVLDELDNELEKRGLKFVRYADDCNIYVRSKRAGLRIMESVTSFIENRLKLKVNREKSAVDRPWNRKFLGFSFTRGKDPKMRVSKESVKRLKQRIRELTSRRHSMKMSDRLRRLNRYLTGWLGYYQLVDTPSILAQIDAWIRRRLRMIRWKEWKTTSARQKNLVRLGIKKAKAWQWANSRKGYWRVAHSPIMDYALNSEYWKGQGLMSLAERYQTRRWTLEHHHHHH | not soluble |
| MLETNVDQKSFKFKIVLLGEGCVGKSSLVLRFVENKFSCKHLSTIQASFQNKTVNVEDCQADLHIWDTAGQEKYHALGPIYYRGSNGVLLVFDITDRKSFEKVKNWVLEIKTCLGNTAEILIVGNKIDLEEERQVTRQDAEAYAESEGALYMETSAQDNVGISDAFESLTAKMIEHSRTRSTEPPSTNRSIRLIDNDEAERSKKCCR | not soluble |
| MLETRMQTTPLKIGISACLLGAKVRFDGGHKISHFVTNELDRYAEFVSVCPEMGMGLPVPRPTLRLISENERIALVETKDSSRDHTAALESYSQQKVAELQHAELCGYIVCAKSPSCGMERVKVYKHNGTEKDGVGVYTRILMEKMPWLPIEEDGRLNDPVLRENYITRVFCLHDFYTSMGDAPSAKKIVEFHSRYKLTLMAHNPQAYRALGRLVANVKQYPLDSFIQEYRLGLMQALAHRASRKNNTNVLMHLQGYFKRSLNKLQKAELAQVIESYRVGELPLLAPITLLKHYLALFPDAYLAQQRYLNPYPQELKLRYGL | not soluble |
| MLFLDSQFVYGAGAQLFNHFCYFFGTQQKFPPFLSIDENQYIIFIATEQFIREIKLLIALLLNENTAKYFQKALLCLKERKLVKIAKVGNVIEFKNGLTGVVEKVNENSVIVDVTIMDNYRDLELDSLTVVNHKNYKIIRDSYLEHHHHHH | soluble |
| MLFNSFQAKIDPSLADLFRNSDKEPFPAMTHELPPEKSLKARLLEQEDERISNVLAHEKRFSTEPVVIDDVFMSRLCVDSQPGCSRIPDIDIANVFRDDLESCTLSSSEDEEEEEEPIGQISTFEMLHAPRKPIVWSEQELSDFDMKSRLLDMRMDHWDLARIANVPKRIAKGETVNLRMPRYSAEVVKQRIAKGVTDIFGHFSLVPHTLTKSHKPVAERKQILIERYHDLMNDFDYATRPGSVESKKYANLTKRLNLCNDFLSAPKLPHRLFPRLIIRSIRPPETPKEPVKRKMRESESDDSVIIIPRKIEKEKPRPTTENVVLKKVEMEKKRPRSPELVPKKIVMEKERPSSPDSEAEEREHNLRIEKERHQKELEFRREALRKREQEREEHKKRAQEELRRQMTAALEESTRRQAEMNRQIEDEARKRDELQRIAEEKKRKQLLEDQCRAKQEKEKRDAEELEQMRLNIARLAGTKDVENALKSPSLVEIVPPSDARAFEMIKWNAVKCKIPENWEKRKDKFYRVFEWPSDAAQRDIERDEVVSIPRSKPIVIPQEDTYITRNRIPLKLPPKVKQAVPALVVRNSNNATRTVVAATVNENGIQWPAETINIDEVVREIRGLMAPTRRNFAISLSPKTDEIDYQAINLNRLKSGIVYPFYFSDGLYWPLVFLKSSKNGKPEAQRHVEALTSCKSFSGKYASRYLLTTTKEEDSATKKFEDAYADSDGDWADYSTKPGRFSNRAGFKPHYDTSNDSFEVQKQRAVDSLNSQYEKERNELDAFGRYTDEYRKRKDRAQYQNHIKTHLRELVRDARLDAFSFKEEFKDFEGGFEDYPGTRVEPYENDWYSHGYTLYSHTRDAAYADYMHDVCKPYEDMLPPTEYHEIFNEWCFTPMLASLHYQLKKNAFDVLSPQDVKDMEARHRKYIGLVQKERKFSLEQALDVCKLTDYDKRQWTILHDQLVTHFKDFPSISGLVYDRNTNLLANVNRNLKHLFSTIYRDDSPPDDQF | soluble |
| MLGDVERFFSKKALEMRASEVRELLKLVETSDIISLAGGLPNPKTFPKEIIRDILVEIMEKYADKALQYGTTKGFTPLRETLMKWLGKRYGISQDNDIMITSGSQQALDLIGRVFLNPGDIVVVEAPTYLAALQAFNFYEPQYIQIPLDDEGMKVEILEEKLKELKSQGKKVKVVYTVPTFQNPAGVTMNEDRRKYLLELASEYDFIVVEDDPYGELRYSGNPEKKIKALDNEGRVIYLGTFSKILAPGFRIGWMVGDPGIIRKMEIAKQSTDLCTNVFGQVVAWRYVDGGYLEKHIPEIRKFYKPRRDAMLEALEEFMPEGVKWTKPEGGMFIWVTLPDGIDSKKMLERAIKKGVAYVPGEAFYAHRDVKNTMRLNFTYVDEDKIMEGIKRLAETIKEELKA | soluble |
| MLGLPPELGLRTYSARLLGSNPKLVLHGGGNTSVKLNINDLFGNPVQVMCIKGSGQDLATITASGHPAVRLAPLQQLKVLDHLSDEDMVNILRTNLLDCRAPTPSVEALLHAFVDRPVIDHTHAVAAMVIADQPDGDRLCRYIYGERVLWIPYVMSGFALSLAVERAFRAYPDAEGMLLGKHGLCTFGESAKASYERMITFVTLAENFIESRRAIYSPLEHHHHHH | not soluble |
| MLGRALRPGWLGITRTVVKKPSCGSYFNRTFQTAINTTMPPMQEGMLSTMMMMTATATRITGTVSEPLNGSNIVMQLDSVMRKRKKKMKKHKLRKRRKREKAERRKLSQGR | soluble |
| MLGRTDISTFPRLKLGFWGEVTLTFPAVCDAAEIVLPANWADMSVAANNDNAAINTNNVNFLHISSYIRILVTTIPLRCGKTRDNPH | not soluble |
| MLHKEKPDYNRNQYGFYTLDQLVPDEHFLRQVEAVIDFDFIYDLVEDTYSSDNGRPSLDPVMLVKIPLIQCFYGIRSMRQTIKDIEVNTAYRWFLGLTLDDKVPHFTTYGKNYSRRFQEKGLIESIFTHIVGLCINTGLIDPTEIFIDGTHIKAAANNRKFINREVEKQAKFMSEQLEIEINRDREKHGKKPLGPAKELEPVAKKISTTDPESGWFHKGDHKEVFAYSAQVACDKYGWALAYSVEAGNIHDSQAFPALFAKLEPLKPQFIIADSGYNVPSIAKFLIDKEITPVLPYTRPRGKKDLLRPKELIYDEHFDCVICPEHQALTYRTTTREGYREYKSDPVICANCPLLSVCTTSKNYQKVVTRHIWKDYLAQPRNTTISAIRERKASPKWKIRLD | not soluble |
| MLHLIVADSELETIPEEMLDDPGVRRFAKKRNKRVDRMILDSNYMHAFIDKYYPGESKRRGRPDIIYILLEMAQESILNRKNLLRTYIHTRNDFVIKISPITRMPKSYNRFIGLFEDLFEKEIITNNGKTLLSLERMKLDELLESLKKDRTILLHPKGEFKKPSEFISTEDIAAIIGGFSEGDFRSDVSNIPEKYSIFRDELTIWSVGLEIVASYERAIGLLLEHHHHHH | not soluble |
| MLHLIVLLVALSSAVTAGRPRRALDGLDGSGFGFDKRALNSLDGAGFGFEKRALNSLDGQGFGFEKRALDGLDGAGFGFDKRALNSLDGAGFGFEKRALDGLDGSGFGFDKRALNSLDGAGFGFEKRALNSLDGAGFGFEKRALDGLDGAGFGFDKRALNSLDGAGFGFEKRALDGLDGAGFGFDKRALNSLDGNGFGFDKRTFKHSSNKLRSVFRNLKGFKQH | not soluble |
| MLITEIFHSIQGEGPYAGLPMLFVRTNVCNIRCEWCDTKYSFYGGKEIPLSELLGIVKEAKEGWVCFTGGEPLVQRDALAFVKSVVDMGKNVLIETNGTISIRNFVFSDRIFIDMDVKPPSAKVTKGFLMDNLRYLRKQDYLKIVIKDDTDLDFAIDFVDRYGEGLSFVFQPAWGSDIRRIADRIVGTGYNVRVLPQIHKIIYGDVPGV | not soluble |

From the DeepSol protein solubility set
